These results are taken from US20040235002A1, “Multiplex screening assays” (Sangamo BioSciences, Inc., priority 2002, published 2004).

In one data set the test system is ERα and ERβ. The conditions noted are these: Barkham et al. (1998) Molecular Pharmacology, 54:105-112; cited from earlier work.
Data set [1] concerns ZFP1727-TRbeta LBD (synthetic/human). Put plainly: cell_activity. The conditions noted are these: GRP mRNA, 100 nM T3, HEK293.
Data set [2] concerns ZFP734-FXR LBD (synthetic/human). Put plainly: cell_activity. The conditions noted are these: Kip2 mRNA, 100 nM CDCA vs untreated, HEK293.
Data set [3] deals with ZFP757-ERalpha LBD (synthetic/human). Briefly: cell_activity. The conditions noted are these: AnxA8 mRNA, 100 nM 17beta-estradiol vs untreated, HEK293.

`C[C@]12CC[C@@H]3c4ccc(O)cc4CC[C@H]3[C@@H]1CC[C@H]2O` [17alpha-estradiol]: in the data set on ERα and ERβ, the “activation of ERα and ERβ as known from the literature” value is recorded as “preferentially activates ERα”.

With “GGTGGGGAGG (double strand) [GRP site (ZFP1727)]”, the activity in data set [1] was determined as 14 fold.

For “GGGGCTGGGT (double strand) [kip2 site (ZFP734)]”, the activity in data set [2] amounted to 3.5 fold.

For “CGGGCGGCTG (double strand) [anxA8 site (ZFP757)]”, the activity in data set [3] is 12 fold.
